Results as given in PMC5409509.

How the values were obtained:
[1] = target: T1, Mlh1-Mlh3 (Saccharomyces cerevisiae) (UniProt P38920+Q12083); assay: filter binding; conditions: 2 mM Mg2+; Filter binding: 20 mM Tris-HCl pH 7.5, 0.01 mM EDTA, 2 mM MgCl2, 40 ug/mL BSA, 0.1 mM DTT, 15 uM nucleotide DNA, 10 min at 30 C (20 or 150 mM KCl in Fig 4B …)
T1 sequence 1: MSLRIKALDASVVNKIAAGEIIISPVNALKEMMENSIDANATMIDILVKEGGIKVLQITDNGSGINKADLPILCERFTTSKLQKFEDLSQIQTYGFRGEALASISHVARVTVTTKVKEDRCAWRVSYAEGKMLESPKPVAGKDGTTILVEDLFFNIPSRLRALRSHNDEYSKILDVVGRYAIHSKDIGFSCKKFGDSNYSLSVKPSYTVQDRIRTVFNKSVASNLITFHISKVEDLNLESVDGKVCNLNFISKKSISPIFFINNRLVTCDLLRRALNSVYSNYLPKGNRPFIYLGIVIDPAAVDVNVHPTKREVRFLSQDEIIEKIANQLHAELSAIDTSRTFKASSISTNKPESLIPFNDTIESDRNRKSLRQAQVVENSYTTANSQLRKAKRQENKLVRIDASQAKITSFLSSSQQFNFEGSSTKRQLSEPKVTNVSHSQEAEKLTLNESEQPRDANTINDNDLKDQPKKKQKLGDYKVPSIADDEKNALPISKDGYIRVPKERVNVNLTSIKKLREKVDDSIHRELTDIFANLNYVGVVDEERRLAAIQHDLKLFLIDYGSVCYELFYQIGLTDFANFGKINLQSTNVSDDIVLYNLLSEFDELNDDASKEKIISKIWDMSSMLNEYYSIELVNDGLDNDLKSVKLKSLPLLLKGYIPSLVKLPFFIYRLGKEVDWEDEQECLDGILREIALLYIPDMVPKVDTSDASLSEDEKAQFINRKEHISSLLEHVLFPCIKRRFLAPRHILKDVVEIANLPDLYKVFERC
T1 sequence 2: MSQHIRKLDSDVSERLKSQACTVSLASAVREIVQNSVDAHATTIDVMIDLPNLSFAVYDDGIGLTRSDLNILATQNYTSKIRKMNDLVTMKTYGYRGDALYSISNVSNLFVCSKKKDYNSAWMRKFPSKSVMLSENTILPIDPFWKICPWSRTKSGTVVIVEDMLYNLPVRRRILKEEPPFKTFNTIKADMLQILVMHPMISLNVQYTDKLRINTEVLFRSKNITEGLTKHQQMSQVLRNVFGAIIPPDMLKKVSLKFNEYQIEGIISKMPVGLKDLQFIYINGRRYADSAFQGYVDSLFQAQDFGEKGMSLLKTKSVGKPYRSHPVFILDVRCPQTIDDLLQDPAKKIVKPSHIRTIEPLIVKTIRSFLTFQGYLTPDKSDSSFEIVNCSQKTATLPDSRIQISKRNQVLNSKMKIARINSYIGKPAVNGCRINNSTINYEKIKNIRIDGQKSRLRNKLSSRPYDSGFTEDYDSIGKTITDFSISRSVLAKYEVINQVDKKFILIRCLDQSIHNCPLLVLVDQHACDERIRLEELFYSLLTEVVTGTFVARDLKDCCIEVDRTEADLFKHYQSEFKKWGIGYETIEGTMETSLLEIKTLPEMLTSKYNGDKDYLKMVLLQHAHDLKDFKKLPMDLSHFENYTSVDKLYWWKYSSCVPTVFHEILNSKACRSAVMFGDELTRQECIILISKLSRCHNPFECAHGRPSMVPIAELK

[2] = target: Yeast wild-type Mlh1-Mlh3 (yeast (S. cerevisiae)) (UniProt P38920)

Row | Substance | Kd [1] [µM] | amount of nicked product made by Mlh1-Mlh3 on the 7.2 kb +8 loop circular substrate, without and with Msh2-Msh3 (10% without) [2] [%] | amount of nicked product made by Mlh1-Mlh3 on the 7.2 kb homoduplex circular substrate, without and with Msh2-Msh3 (15% without) [2] [%]
1 | 2.7 kb linear pUC18 (HindIII) | 0.1 | – | –
2 | 7 kb linear pEAE399 (HindIII) | 0.065 | – | –
3 | 12 kb linear pEAE99 (HindIII) | 0.04 | – | –
4 | Yeast Msh2-Msh3 (from UniProt P25847 1-964; P25336 1-1018) (complex) | – | 21 | 36
